Measurements published in a protein production outcome set (Wang et al. 2014).

Assay: label from the status in PepcDB records

Row | Sequence | protein production
1 | MAEISHPPMEQLQDLEYCIDSNPPWPETVLLAFQNYILMLGTSAFIPALLVPAMGGSDGDRARVIQTLLFVAGIKTLLQALFGTRLPAVVGGSLAYVVPIAYIINDSSLQKISNDHERFIHTMRAIQGALIVASSIQIILGYSQVWGLFSRFFSPLGMAPVVGLVGLGMFQRGFPQLGNCIEIGLPMLLLVIGLTQYLKHVRPFKDVPIFERFPILICVTIVWIYAVILTASGAYRGKPSLTQHSCRTDKANLISTAPWFKFPYPLQWGPPTFSVGHSFAMMSAVLVSMVESTGAYIAASRLAIATPPPAYVLSRGIGWQGIGVLLDGLFGTGTGSTVLVENVGLLGLTRVGSRRVVQVSAGFMIVFSTLGKFGAVFASIPVPIYAALHCILFGLVAAVGLSFLQFTNMNSMRNLMITGLSLFLGISIPQFFAQYWDARHYGLVHTNAGWFNAFLNTLFMSPATVGLIIAVFMDNTMEVERSKKDRGMPWWVKFRTFRGDNRNEEFYTLPFNLNRFFPPT | failed
2 | MAEKALATLKELAFLEDPSPVERDAAIQRFEYTFEAFWKALQAYLREKEGLEGASPKGVIRLAREVGLLRDEEARLALGMVDDRSLTVHTYNEPLARAIFRRLPDYARLMEQVLGRLRR | not failed
3 | MAEKEKKTKKKKKKEKHQSSDISFKPSSDVKGLKFGGQIIVKSFTIRRARTFELLKLLSLPSSSSPPLLSTAAYLPTNFTILAHHAWHTLTLGLGTRKSKVVVFVFETEAMKSSVVAAEGGIWPSEIPLGDVNKKMIRKLKNWEMARFKFRKGCITFYVYAVRNAGNEGFAAAEDLKVILQAVVALKDFMDHTAMLVMPHQKSINYSSCPPFAMAH | failed
4 | MAEKLLHTAESDAGIGSWVLHMESGRLEWSQAVHDIFGTDSATFDATEDAYFQRVHPDDRARVRRELDRHVLGDRPFDVEYRIVRPDGQVRELLERNHIQRQASGQVDHLWGTVIDMTEHKQLKRQLQLSQLAVEHCSEGIAIADEGLDWLYVNPALARMGGLTMADPSQLSGLFMAPGVEARLEREALRELLDASGAWQGELLLARRGAAPLPVLASATRLRDEDGRLLSVWVVSDISGMKESERRLHALAFFDGLTGLANRALFGERLRWHLQNEPAGGRLAILFLDLNGFKQVNDLLGHEAGDQVLREVARRLQAGCRPGELAARWGGDEFAVLLPGVADDAVLAARLRELREAARAERWGGGRWLRVSASLGAAVYPESAEDAERLIQLADRAMYRAKSEGGGQVWLHDGGGLRTLAGADCGA | failed
5 | MAEKSNKLDHIGIAVTSIKDVLPFYVGSLKLKLLGMEDLPSQGVKIAFLEIGESKIELLEPLSEESPIAKFIQKRGEGIHHIAIGVKSIEERIQEVKENGVQMINDEPVPGARGAQVAFLHPRSARGVLYEFCEKKEQ | not failed
6 | MAEKSQIPDNNNNTSSSAKKPTPEIGSGSGKRYYNPPESVNPDQATLREQWKFAIRQYSKWYSHAWGTAILAGGFFFGLGWIIKGSNPLPSLQSSSKPRDEEK | failed
7 | MAELIHSTIGRLLEQTADAYPDRDAVVYPDRNIRYTYAQFDSLCRQTAKGLMRMGIGKGDHVAIWASNISEWLAVQFATAKIGAVLVTVNTNYQAHELDYLLKQSDAAALIIMDSYRGTSYPDIVNSLIPELQEAKPGQLKSERYPFLKTLIYIGNKRLSGMYHWDDTEILAKTVTDAELEERMNSLDKDNVINMQYTSGTTGFPKGVMLTHFNVINNAANIAECMALTSQDRMCIPVPFFHCFGCVLGVLACVSVGAAMIPVQEFDPVTVLKTVEKEKCTVLHGVPTMFIAELHHPDFDAYDLSTLRTGIMAGSPCPSEVMKAVIERMGMKDITIAYGQTEASPVITQTRANDSFIRRVETTGRALPHTEVKIVEPGTCQEVQRGMQGELCTRGYHVMKGYYKDKDATRKAINHDGWLFTGDLAVMDEDGYCRITGRLKDMLIRGGENIYPREIEEFLYQHPAVLDVQVVGVPDAKFGEEAAAWIKLKDGKSVSPDELKAYCKGKIARHKIPRYVIFTDDYPMTASGKIQKY | not failed
8 | MAELLAAGPSGVAGAVARAMERSAPGSGASWYGGDHTDFRDGVFLREVIGVQVVVQEGGTAVPEAMTGLPPRPGGFTGRDRETEDLLRALDPDGAQSAAAPVASVSGLGGIGKTALAVETAHLARERGWFPGGILFIDLHGYDREPVTADRSLRTLLHALGIPPEHMPTTTDERAALYRSTLAVRAGERGGMLVLADNASSAEQVRPLLPGDFRHRVLVTSRDRLPQLGARLLPLDELGTREAYELLDRALRIADPHDGRVGDDPGTTGRLASLCGHLPLALQIAAALLAADPAKPVSELVAELAEAHDRLDHLDDGERSVRAAFELSYRRLPPEQARLLRLLALAPGPEVSDEVVAALVGADRPPVRDQHALARAHLVERGHTRGSWRLHDLVRVFGAGVVARAEGDAARARVLRHYLERARAADARLKPRTEDDEGTRPFRSREEALAWFDAERAGLVAAVQWATDRQLAADAVRLAGALGEYLDWRRRFDDSVTVCGAVCAAARRAGDEAAEAAAWNRTGTALRGNRRLREAYDAHRRAHDLYDALGHDNGRAMALSNLGAILGDVGQVDDAVDAFRLALGLFRRTGDRHSEAGVWNNLALILRKSGRVDEALDALRSALGLYRETGDRPREGRARHNYAVALNARGRTAEAVTACLDSLDICEEFEDWHGAARTLYALGLVHETAGDAERARVRMTQAADAYERAGSPKEAEQARRAARLTGPAPTGTPAPAAPPDRTADSGPPGPRPPGVPGNAGP | failed
9 | MAENHCELLPPAPSGLGAGLGGGLCRRCSAGMGALAQRPGGVSKWVRLNVGGTYFLTTRQTLCRDPKSFLYRLCQADPDLDSDKDETGAYLIDRDPTYFGPVLNYLRHGKLVINKDLAEEGVLEEAEFYNITSLIKLVKDKIRERDSRISQMPVKHVYRVLQCQEEELTQMVSTMSDGWKFEQLVSIGSSYNYGNEDQAEFLCVVSKELHNTPYGTTSEPSEKAKILQERGSRM | not failed
10 | MAEPKQSSLSEVKTNVIGSRKEEKESMFHGKETHGRSEDIDEKTRVDDVKGPGVLGRMMEEMEAIVDAVTPNKSSDK | failed
11 | MAEPVQEELSVLAAIFCRPHEWEVLSRSETDGTVFRIHTKAEGFMDADIPLELVFHLPVNYPSCLPGISINSEQLTRAQCVTVKEKLLEQAESLLSEPMVHELVLWIQQNLRHILSQPETG | not failed
12 | MAEQDLTMIVGTYTSGDSKGLYSFRFNEENGTATALSEAEVENPSYLVPSADGKFIYAVSEFSNEQAAANAFAFNKEEGTFRLLNTQKTGGEDPCYIITNGSNVVTANYSGGSISVFPIDKDGSLLPASEVVKFKGSGADKERQEKPHLHCVRITPDGKYLFADDLGTDQIHKFIVNPNAKADNEDVFLKEGSPASYKVEAGSGPRHLTFAPNGSYAYLINELSGTVIAFEYNDGELKEIQTIAADTVGAKGSGDIHISPDGKFLYASNRLKADGLAIFSIHPENGMLTKVGYQLTGIHPRNFIITPNGKYLLVACRDSNVIQVYERDTDTGLLTDIRKDIKVDKPVCIKFVPLEHHHHHH | not failed
13 | MAERINPVVKAVLEWGPIAAFFLGYVKLKDETFTVAGTDYQGFIIVTAAFIPLMVICTGLLWWLSGKLSKMQVATVVLVVVFGGLSVWLNDDRFFKMKPTMIYLLFGVLLGIGLLRGQSWLRLVLEEAIPLQDEGWMILTRRVMAFFFALAIANEAVWRLMSTDAWVNFKTFGLPLAIFVFFMTQSGLFKRYNPERKDEA | not failed
14 | MAERLGILVGGGPAPGINSVISSVTIEAINNGLEVIGIYDGFKHLVEGKTNMVKKLSIEDVSRIHIEGGSILRTSRVNPAKSEETLEKTVQTLKKLGIKYLVTIGGDDTAFSASKVCERSKGEIKVVHVPKTIDNDLPLPENMPTFGFETARHVATELVYNLMQDSRTTNRWYFVAMMGREAGHLALGVGKAASATITIIPEEFKEGVTLEEVCDVLDGAILKRKLMGRDDGVAVIGEGIAEKMDPEELANIPGVIVEKDPHGHLRLAEIPLATILKRAIERRYAERGERIHIVDVTIGYELRSARPIPFDIVYTRTLGYGAVRFLLGDYSDLPGGMVCVVGGRIKILPFDAFMDPKTGRTKVRVVDVRSEDYRVARKYMIRLEKKDLEDPETLEKLAKLAKMEPEEFKKKYWHTTELP | failed
15 | MAETAETINTTISSPPPESESSTTISAMTDPTSQEAASKDTDLTKEAESEKKPGGISLRIWPPTQKTRDAVLNRLIETLSTESILSKRYGTLKSDDATTVAKLIEEEAYGVASNAVSSDDDGIKILELYSKEISKRMLESVKARSNASVGNGSVEDANTDASEVSKDDAGPASEEEKSEA | failed
16 | MAEYEDRYWTSSDGLRLHFRAYEGDISRPPVLCLPGLTRNARDFEDLATRLAGDWRVLCPEMRGRGDSDYAKDPMTYQPMQYLQDLEALLAQEGIERFVAIGTSLGGLLTMLLAAANPARIAAAVLNDVGPEVSPEGLERIRGYVGQGRNFETWMHAARALQESSGDVYPDWDITQWLRYAKRIMVLGSSGRIAFDYDMKIAEPFEAPVGATPQVDMWPLFDALATRPLLVLRGETSDILSAQTAAKMASRPGVELVTLPRIGHAPTLDEPESIAAIGRLLERV | not failed
17 | MAFCSLEKRHAILDWPQLQLTNGSGRCSGRVEVYYHGQWGRVCDDQWDLREADVVCRQLNCGDALEAPVQARFGDGPGEFLLDEMDCTGTESFLGQCPHAGWHLHNCGSGEDASVICEGNGEELVARPQVLPVADPVPGSRRAHVPRLSLNGADMSPDPTPVIDPDPESSKPSGDWAPVRLSGNHGSCAGRVELFYQGVWGTVCDDLWDLTEANIICRQLGCGRAVSALSEAYFGQGSGKILLDNVHCKGHEEHLEECSHLGWFSHNCDHSEDASVICSDAEYGMATLSDHPLAVMEGAMNPEKSRCGGVITKAPGKIKNPPMNEMHDNITCVWEIRANTSDRIRLAFPSLDLDCTNEYFEILDGPPSSVKSLGKPCRGLHVTFASHSNSMTLVYFRGENNIGKNFMAYYYFEAKEVTTKTPYLITIPTATSKMVTERPQFSKPAQPTHTPSGNVSPLPVPDSGDWPELRLVGGSNRCSGRVEILYQGVWGTVCDDLWDLNEAEVVCRQLECGQAVSSLGEAYFGPGSGDIFLDNLQCSGLEHYLSQCPHSGWSEHNCGHHEDAGVICSDSGAPPPPMPPGPPPTSQDPLTGGSNSCGGVISSLSGSFTSPQYPENYPTDIQCVWEIHVEKNFRIELMIPNLNLEDILGCPYDSVEIFDGPRIPSLSMGKFCAPSAVVFFSSSDILTVVFRSDYMTTNTGFYAFFNAIPQDGKESEERPVLRLAGSSGQCSGRVEILHQGAWGTVCDDLWDLNEAEVVCRQLGCGHAIAAPGSAYFGPGSGNILLDNIQCSGKENHFGQCSSSAWLDHNCGHHEDAGVICSDAEVTPSPTEGSQSCGGVISSLSGSFSSPWYPTNYPTDTECIWEIHVAEKFNIELTIPSLK | failed
18 | MAFDGCCPDCKLPGDDCPLIWGACNHAFHLHCILKWVNSQTSQAHCPMCRREWQFKE | failed
19 | MAFGSFARSGGSSRFLFTAGRMAQQLTVSIGQASSPGRKPVNQDFYGALIPAEPLLITKGIALALADGISSSDISQVASESAVKSFLTDYYCTSEAWSVKSSAQRVIAATNSWLHAETRRSDYRYDRDKGYVCTLSALVIKGAAAHLFHIGDSRIYRLAGASLEQLTEDHRVRLSAEQSYLGRALGVNPQVEIDYLSVPIGSGDLFVLATDGVYEHVAHRFVVQTLRDHGDDLDAAARAIVGEAFNNGSDDNLTVQVVRIESVPGADSIDLFERVAELPLPPLLEPRAEFDGYRIIRELHGSSRSHIYLASDLATGELVVLKIPSADLRDDPEYRKRFMLEEWAARRIDSPHVLKPCVVQRPRSYLYVTFEYIEGQTLAQWMIDHPRAELETVRGLIEQIAKGLYAFHRKEMVHQDLRPANVLIDRSGTVKIIDFGSVRVAGVAELGPAGGDELLGTVQYMAPEYFAGQGGSALSDQFSLGVIAYQMLTGRLPYGAELARANQALKSRKLRYSAAADHNAKVPVWVDRALQRAVSLDPAKRYPALSEFVHDLRHPRADYLDARPQPLAARNPLLFLQLLSALLALIVVGLLARLHGSI | failed
20 | MAFTKIIFKNPNTGAIKEAPVGFSWTVFFFGFIPALFRADWKWAAIMFLLAMFTFGLSNLVFMFIYNKLYVRDLIGAGFKAQSIASGDLNFASSRIGMEIPRLEAA | failed
